Measured values from US20070020757A1.

Tests used:
[1] = target: receptor for Angptl2 expressed on mouse bone marrow hematopoietic stem cells (unidentified) (mouse); test: flow cytometry; fresh mouse bone marrow cells, ~1 ug/ml Angptl2-hFc at 4 C for 30 min, anti-human IgG1-PE
[2] = target: receptor for Angptl2 expressed on mouse bone marrow hematopoietic stem cells (unidentified) (mouse); test: flow cytometry; 4 day cultured mouse bone marrow cells, ~1 ug/ml Flag-Angptl2 medium

Row | percent of total bone marrow cells that bind [1] [%] | percent of total cells that bind [2] [%] | Substance
1 | 12.8 |  | Angptl2-hFc (human Angptl2 fused to Pro 100-Lys 330 of human IgG1 Fc) (from UniProt Q9UKU9 23-493) (Fc fusion)
2 |  | 5.3 | FLAG-hAngptl2 (human Angptl2 with a FLAG tag fused at the C-terminus) (from UniProt Q9UKU9 23-493) (ligand)
